Data: patent publication US20250270301A1 (GEN2 NEUROSCIENCE, published 2025)
Substitutions are numbered along the chain they refer to.

B1: #44 VH3VK3 humanised hIgG1 (antibody, V domains shown)
VH: QVQLQESGPGLVKPSETLSLTCTVSGIDLSSYAMAWVRQAPGKGLEWIGCIDRRGGTFYASWVKGRFTISKTSTTVDLQMTSLTAEDTATYFCARDSGAFDPWGQGTLVTVSS
VL: DIQMTQSPSSLSASVGDRVTITCQASQSVYDNYLAWYQQKPGQPPKLLIHAASNLASGVPSRFKGSGSGTEFTLTISSLQPDDFATYYCLGEFSCTTTDCNVFGGGTKVEIK
notes: also called VH3Vκ3; Clone VH3VK3 (A)
B2: #44 VH4VK2 humanised hIgG1 (antibody, V domains shown)
VH: QVQLQESGPGLVKPSETLSLTCTVSGIDLSSYAMAWVRQAPGKGLEWIGCIDRRGGTFYASWVKGRFTISKDTSKTTVDLQMTSLTAEDTATYFCARDSGAFDPWGQGTLVTVSS
VL: B1 VL with D1Q, Q3V
notes: also called VH4Vκ2; Clone VH4VK2 (C)
B3: #44 VH4VK3 humanised hIgG1 (antibody, V domains shown)
VH: B2 VH
VL: B1 VL
notes: also called VH4Vκ3; Clone VH4VK3 (D)
B4: #44 VH3VK4 humanised hIgG1 (antibody, V domains shown)
VH: B1 VH
VL: B1 VL with K64S
notes: also called VH3Vκ4; Clone VH3VK4 (B)
B5: #44_VH4VK4_H03/pVL (antibody, V domains shown)
VH: B2 VH with S99A, P104V
VL: B1 VL with K64S
notes: also called Clone VH4_H03; #44_VH4_H03
B6: #44_VH4VK4_H11/pVL (antibody, V domains shown)
VH: B2 VH with C50A, R53A, G56A
VL: B1 VL with K64S
notes: also called Clone VH4_H11; #44_VH4_H11
B7: #44_VH4VK4_H09/pVL (antibody, V domains shown)
VH: B2 VH with C50A, R53A, G56N
VL: B1 VL with K64S
notes: also called Clone VH4_H09; #44_VH4_H09
B8: #44_VH4VK4_H07/pVL (antibody, V domains shown)
VH: B2 VH with C50A, R53A, R54A, G56N
VL: B1 VL with K64S
notes: also called Clone VH4_H07; #44_VH4_H07
B9: #44_VH4VK4_H08/pVL (antibody, V domains shown)
VH: B2 VH with C50A, R53A, R54A, G56R
VL: B1 VL with K64S
notes: also called Clone VH4_H08; #44_VH4_H08
B10: #44_VH4VK4_H10/pVL (antibody, V domains shown)
VH: B2 VH with C50A, R53A, G56R
VL: B1 VL with K64S
notes: also called Clone VH4_H10; #44_VH4_H10
B11: #44_VH4VK4_H12/pVL (antibody, V domains shown)
VH: B2 VH with C50A, R53A, G56S
VL: B1 VL with K64S
notes: also called Clone VH4_H12; #44_VH4_H12
B12: #44_VH4VK4_H05/pVL (antibody, V domains shown)
VH: B2 VH with S99A, A101H, P104Y
VL: B1 VL with K64S
notes: also called Clone VH4_H05; #44_VH4_H05
B13: #44 VH2VK3 humanised hIgG1 (antibody, V domains shown)
VH: QSVQESGPGLVKPSETLSLTCTVSGIDLSSYAMAWVRQAPGKGLEWIGCIDRRGGTFYASWVKGRFTISKTSTTVDLQMTSLTAEDTATYFCARDSGAFDPWGQGTLVTVSS
VL: B1 VL
notes: also called VH2Vκ3
B14: #44 VH2VK2 humanised hIgG1 (antibody, V domains shown)
VH: B13 VH
VL: B1 VL with D1Q, Q3V
notes: also called VH2Vκ2
B15: #44 VH2VK4 humanised hIgG1 (antibody, V domains shown)
VH: B13 VH
VL: B1 VL with K64S
notes: also called VH2Vκ4

Molecular target: aggregated (oligomeric) P301S 2N4R tau, pHrodo-labelled (human, UniProt P10636 1-758, pHrodo Red maleimide label)
Sequence (P10636 other isoform, or with tags, fused parts or gaps P301S P301S): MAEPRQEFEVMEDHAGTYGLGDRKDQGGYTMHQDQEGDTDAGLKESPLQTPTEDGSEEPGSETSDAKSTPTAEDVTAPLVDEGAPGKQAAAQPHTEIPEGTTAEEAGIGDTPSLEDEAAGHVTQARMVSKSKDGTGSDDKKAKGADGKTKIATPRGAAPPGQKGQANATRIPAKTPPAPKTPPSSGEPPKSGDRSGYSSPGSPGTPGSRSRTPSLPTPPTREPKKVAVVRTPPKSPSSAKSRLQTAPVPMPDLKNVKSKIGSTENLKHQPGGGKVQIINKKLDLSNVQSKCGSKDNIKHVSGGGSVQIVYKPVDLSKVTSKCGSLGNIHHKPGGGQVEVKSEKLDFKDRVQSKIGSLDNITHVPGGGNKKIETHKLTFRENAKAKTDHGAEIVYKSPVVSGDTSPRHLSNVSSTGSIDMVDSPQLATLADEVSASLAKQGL
Experiment: cell-based or functional assay

increase of aggregated tau uptake into human iPSC-derived microglia	inhibition of aggregated tau uptake into human iPSC-derived astrocytes	inhibition of aggregated tau uptake into human iPSC-derived neurons	Binder
77.7%	46.4%	30.6%	B1
97.6%	48%	41.9%	B2
90.5%	49.9%	36.3%	B3
83.9%	45%	33.3%	B4

Molecular target: monomeric P301S 2N4R tau, pHrodo-labelled (human, UniProt P10636 1-758, pHrodo Red maleimide label)
Sequence (P10636 other isoform, or with tags, fused parts or gaps P301S P301S): as above
Experiment: cell-based or functional assay

increase of monomeric tau uptake into human iPSC-derived microglia	inhibition of monomeric tau uptake into human iPSC-derived astrocytes	inhibition of monomeric tau uptake into human iPSC-derived neurons	Binder
16.1%	85.2%	48.4%	B1
71.4%	84.6%	50%	B2
60.2%	87.5%	41.8%	B3
80.3%	87.6%	43.1%	B4

Molecular target: T1, Bovine serum albumin (bovine, UniProt P02769 25-607)
T1 construct: also called BSA
T1 sequence (P02769 25-607 limits assumed): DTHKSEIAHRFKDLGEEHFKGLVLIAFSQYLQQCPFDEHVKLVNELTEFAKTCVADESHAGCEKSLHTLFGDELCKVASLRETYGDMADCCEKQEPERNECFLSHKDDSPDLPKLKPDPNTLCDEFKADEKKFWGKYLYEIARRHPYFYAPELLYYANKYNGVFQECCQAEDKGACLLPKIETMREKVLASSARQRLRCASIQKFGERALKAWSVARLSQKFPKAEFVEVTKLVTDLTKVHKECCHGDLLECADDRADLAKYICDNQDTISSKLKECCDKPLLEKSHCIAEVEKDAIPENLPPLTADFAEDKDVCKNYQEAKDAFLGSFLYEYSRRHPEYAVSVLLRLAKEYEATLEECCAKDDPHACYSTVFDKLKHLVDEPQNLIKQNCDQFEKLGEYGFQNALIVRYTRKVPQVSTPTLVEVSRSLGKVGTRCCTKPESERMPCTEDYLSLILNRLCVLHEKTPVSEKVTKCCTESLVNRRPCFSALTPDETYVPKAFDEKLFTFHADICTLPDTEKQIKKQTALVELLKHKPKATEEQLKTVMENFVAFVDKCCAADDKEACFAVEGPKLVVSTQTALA
Experiment: ELISA on 1% BSA, HEK supernatant, anti-human IgG-HRP, n=1

Binder	binding result
B5	no binding (tested: 30 ng/ml (legend 1:100))
B6	no binding (tested: 30 ng/ml (legend 1:100))
B7	no binding (tested: 30 ng/ml (legend 1:100))
B8	no binding (tested: 30 ng/ml (legend 1:100))
B9	no binding (tested: 30 ng/ml (legend 1:100))
B10	no binding (tested: 30 ng/ml (legend 1:100))
B11	no binding (tested: 30 ng/ml (legend 1:100))
B12	no binding (tested: 30 ng/ml (legend 1:100))

Molecular target: T2, full length recombinant human 2N4R tau (human, UniProt P10636 1-758)
T2 construct: bought from rPeptide; pHrodo Red maleimide-labelled where it stands in uptake assays; also called tau1-441; full length tau
T2 sequence (P10636 other isoform, or with tags, fused parts or gaps limits assumed): as the sequence (P10636 other isoform, or with tags, fused parts or gaps P301S P301S) above, with S301P counted along it
Experiment: SPR MCK, IgG on Protein A, tau in flow
Experimental: Slight variations in RMAX are considered likely to be due to differences in ligand capture and not reflective of significant variation in antibody binding characteristics.
22.2 Assessment of antibody binding to tau (Biacore MCK analysis): Binding of anti-tau hIgG1 to full length recombinant 2N4R tau (Rpeptide; SEQ ID NO: 2) was assessed using the Biacore T200 (GE Healthcare, Chicago, IL, USA) running Biacore T200 Evaluation Software V2.0.1. hIgG1 were immobilised on a Protein A capture sensor chip in running buffer (HBS-EP+ buffer containing 1 mg/mL BSA) at 25° C., captured to ˜50 RU at […]. For multi-cycle kinetics experiments, recombinant 2N4R tau was flowed at concentrations ranging from 0.39 nM to 12.5 nM in running buffer at 40 μL/min, with an association time of 60 s and a dissociation time of 200 s. Curves were compared to a reference cell that was mock immobilized (no antibody present).

Kd	Relative KD (to VH0VK0)	koff	kon	Binder
5.7 nM	1.75	0.0927 s⁻¹	1.63e+07 M⁻¹ s⁻¹	B1
4.39 nM	1.35	0.0401 s⁻¹	9.14e+06 M⁻¹ s⁻¹	B2
5.14 nM	1.58	0.0403 s⁻¹	7.83e+06 M⁻¹ s⁻¹	B3
6.57 nM	2.02	0.0618 s⁻¹	9.4e+06 M⁻¹ s⁻¹	B4

Molecular target: T1, Bovine serum albumin
Experiment: ELISA on 1% BSA, HEK supernatant, anti-human IgG-HRP, n=1
Remark: another data set of the same source
Experimental: FIG. 7. A panel of humanised anti-tau IgG bind to full length recombinant 2N4R tau in an ELISA format. Supernatants from HEK cells transiently transfected with each IgG clone were tested at 1:100 for binding to full length recombinant 2N4R tau (solid bars). […] Binding of anti-tau hIgG1 was detected using an HRP-conjugated anti-human secondary antibody and data are shown from a representative experiment (n=1 replicate).
Antigen was removed from wells and the plates were then blocked for 1 hour at RT with 5% dried milk in 1×TBS. Blocking solution was removed, HEK293 cell supernatant (1:100 in 1% BSA/1×TBS) was added to relevant wells, and plates were incubated for 1 hour at RT with gentle shaking. Plates were then washed four times with TBS/0.1% Tween (TBST). Goat anti-human IgG-HRP antibody (Thermo Fisher Scientific, Waltham, MA, USA), diluted 1:2000 in 5% milk/TBS, was added to each well and plates were incubated for 1 hour at RT with gentle shaking before being washed four times with TBST. 3,3′,5,5′-tetramethylbenzidine (TMB) ELISA solution was added to each well and plates were incubated for 15 mins at RT. An equal volume of 1 M sulfuric acid was added to each well and OD was measured at 450 nm.

binding result	Binder
no binding (tested: supernatant 1:100)	B1
no binding (tested: supernatant 1:100)	B2
no binding (tested: supernatant 1:100)	B13
no binding (tested: supernatant 1:100)	B14
no binding (tested: supernatant 1:100)	B3
no binding (tested: supernatant 1:100)	B15
no binding (tested: supernatant 1:100)	B4

Molecular target: T2, full length recombinant human 2N4R tau
Experiment: SPR SCK, IgG on Protein A, tau in flow

Fold change (KD, to pVH/pVL)	Kd	koff	kon	Binder
1.03	6.4 nM	0.0151 s⁻¹	2.36e+06 M⁻¹ s⁻¹	B5
1.16	5.65 nM			B6
0.67	9.85 nM	0.032 s⁻¹	3.25e+06 M⁻¹ s⁻¹	B7
0.9	7.35 nM			B8
0.26	25.7 nM	0.011 s⁻¹	426000 M⁻¹ s⁻¹	B9
0.66	9.95 nM			B10
1.09	6.04 nM	0.251 s⁻¹	4.16e+07 M⁻¹ s⁻¹	B11
1.36	4.84 nM	0.0203 s⁻¹	4.18e+06 M⁻¹ s⁻¹	B12

Molecular target: T2, full length recombinant human 2N4R tau
Experiment: SPR SCK, IgG on Protein A, tau in flow
Remark: another data set of the same source
Experimental: 21.5 Assessment of antibody binding to tau (Biacore SCK analysis): Binding of anti-tau hIgG1 to full length recombinant 2N4R tau (Rpeptide; SEQ ID NO: 2) was assessed using the Biacore T200 (GE Healthcare, Chicago, IL, USA) running Biacore T200 Evaluation Software V2.0.1. hIgG1 were immobilised on a Protein A capture sensor chip in running buffer (HBS-EP+ buffer containing 1 mg/mL BSA) at 25° C., captured to ˜50 RU at 10 μL/min. For single-cycle kinetics experiments, recombinant 2N4R tau was flowed at concentrations ranging from 1.25 nM to 10 nM (2-fold dilutions) with an association time of 60 s and a dissociation time of 200 s. Curves were compared to a reference cell that was mock immobilized (no antibody present).

Kd	Relative KD (to VH0VK0)	koff	kon	Binder
7.71 nM	2.01	0.0341 s⁻¹	4.43e+06 M⁻¹ s⁻¹	B1
6.86 nM	1.79	0.0247 s⁻¹	3.6e+06 M⁻¹ s⁻¹	B2
4.52 nM	1.18	0.0187 s⁻¹	4.14e+06 M⁻¹ s⁻¹	B13
5 nM	1.31	0.0182 s⁻¹	3.63e+06 M⁻¹ s⁻¹	B14
6.68 nM	1.74	0.034 s⁻¹	5.09e+06 M⁻¹ s⁻¹	B3
5.33 nM	1.39	0.0195 s⁻¹	3.66e+06 M⁻¹ s⁻¹	B15
7.02 nM	1.83	0.043 s⁻¹	6.12e+06 M⁻¹ s⁻¹	B4
